Results taken from PMC7641127, “MCL1 binds and negatively regulates the transcriptional function of tumor suppressor p73” (Cell Death & Disease, 2020).
One block for each substance: values may come before it.

How the values were obtained:
recombinant MCL1 (human) [1] = target: recombinant MCL1 (human) (UniProt Q07820); test: fluorescence polarisation; direct FPA: recombinant MCL1 with FITC-peptide, 30 min, 1× PBS pH 7.4; limit of detection of the probe 5 nM
recombinant MCL1 (human) [2] = target: recombinant MCL1 (human) (UniProt Q07820); test: fluorescence polarisation; competitive FPA: 50 nM recombinant MCL1, 10 nM F-BAK, titration of unlabeled p73 peptide or p73DBD, 1× PBS pH 7.4
[3] = target: recombinant p73 DBD-TD (amino acids 112–398) (human) (UniProt O15350)
Chain of recombinant p73 DBD-TD (amino acids 112–398) (human) (O15350 112-398): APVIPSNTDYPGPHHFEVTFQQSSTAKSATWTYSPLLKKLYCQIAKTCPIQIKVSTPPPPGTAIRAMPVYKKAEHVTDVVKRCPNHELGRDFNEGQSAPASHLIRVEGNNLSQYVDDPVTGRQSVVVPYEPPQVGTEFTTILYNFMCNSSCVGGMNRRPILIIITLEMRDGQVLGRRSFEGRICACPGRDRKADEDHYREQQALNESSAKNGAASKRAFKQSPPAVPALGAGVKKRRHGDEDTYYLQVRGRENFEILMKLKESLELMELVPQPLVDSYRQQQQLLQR

Kd (recombinant MCL1 (human) [1]): < 5 nM
Substance: N-terminally labeled FITC-p73_(23mer) peptide

IC50 (recombinant MCL1 (human) [2]): 982 nM
Substance: p73_(23mer) peptide (23 amino acids, from the p73 tetramerization domain), unlabeled

decrease in EMSA: binding of 10 μM p73 (DBD-TD) to 1 μM FITC-GADD45 DNA on titration of recombinant MCL1 (10–200 μM), free probe quantified [3]: 27%
Substance: recombinant MCL1 (from UniProt Q07820 1-350) (natural protein)
